Values quoted from earlier work in PMC3008546.

Molecular target: DNA ligase IV BRCT (Homo sapiens) (UniProt P49917)
Sequence (P49917 654-911): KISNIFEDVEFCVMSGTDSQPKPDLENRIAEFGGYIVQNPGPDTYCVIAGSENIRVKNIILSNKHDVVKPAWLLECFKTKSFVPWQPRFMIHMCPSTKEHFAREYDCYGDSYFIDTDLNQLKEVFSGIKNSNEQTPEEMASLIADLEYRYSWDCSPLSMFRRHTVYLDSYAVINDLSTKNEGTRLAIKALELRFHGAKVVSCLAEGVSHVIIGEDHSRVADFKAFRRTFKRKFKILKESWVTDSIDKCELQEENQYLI

XRCC4, sequence (Q13426 266-336): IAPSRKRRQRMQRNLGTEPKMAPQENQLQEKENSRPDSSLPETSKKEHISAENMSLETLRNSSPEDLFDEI

XRCC4 (from UniProt Q13426)
Kd: 1 nM
